Test results published in the supplement of paper PMC11246515.
± gives the standard deviation of the averaged measurements.

Assay: total protein half-life in vivo (active degradation + dilution); higher = more stable protein
[1] = E. coli NCM3722 delta-clpP delta-lon delta-hslV, growth: N-lim chemostat, doubling time 6 h
[2] = E. coli NCM3722 delta-clpP, growth: N-lim chemostat, doubling time 6 h
[3] = E. coli NCM3722 delta-hslV, growth: N-lim chemostat, doubling time 6 h
[4] = E. coli NCM3722 delta-lon, growth: N-lim chemostat, doubling time 6 h
[5] = wild type E. coli NCM3722, growth: C-lim chemostat, doubling time 3 h
[6] = wild type E. coli NCM3722, growth: C-lim chemostat, doubling time 12 h
[7] = wild type E. coli NCM3722, growth: N-lim chemostat, doubling time 6 h
[8] = wild type E. coli NCM3722, growth: N-lim chemostat, doubling time 12 h
[9] = wild type E. coli NCM3722, growth: P-lim chemostat, doubling time 6 h
[10] = wild type E. coli NCM3722, growth: P-lim chemostat, doubling time 12 h
[11] = E. coli NCM3722 delta-smpB, growth: N-lim chemostat, doubling time 6 h
[12] = wild type E. coli NCM3722, growth: C-lim chemostat, doubling time 6 h

| Sequence | total protein half-life in vivo [1] [h] | total protein half-life in vivo [2] [h] | total protein half-life in vivo [3] [h] | total protein half-life in vivo [4] [h] | total protein half-life in vivo [5] [h] | total protein half-life in vivo [6] [h] | total protein half-life in vivo [7] [h] | total protein half-life in vivo [8] [h] | total protein half-life in vivo [9] [h] | total protein half-life in vivo [10] [h] | total protein half-life in vivo [11] [h] | total protein half-life in vivo [12] [h] |
| --- | --- | --- | --- | --- | --- | --- | --- | --- | --- | --- | --- | --- |
| MKRWPVFPRSLRQLVMLAFLLILLPLLVLAWQAWQSLNALSDQAALVNRTTLIDARRSEAMTNAALEMERSYRQYCVLDDPTLAKVYQSQRKRYSEMLDAHAGVLPDDKLYQALRQDLHNLAQLQCNNSGPDAAAAARLEAFASANTEMVQATRTVVFSRGQQLQREIAERGQYFGWQSLVLFLVSLVMVLLFTRMIIGPVKNIERMINRLGEGRSLGNSVSFSGPSELRSVGQRILWLSERLSWLESQRHQFLRHLSHELKTPLASMREGTELLADQVVGPLTPEQKEVVSILDSSSRNLQKLIEQLLDYNRKQADSAVELENVELAPLVETVVSAHSLPARAKMMHTDVDLKATACLAEPMLLMSVLDNLYSNAVHYGAESGNICLRSSLHGARVYIDVINTGTPIPQEERAMIFEPFFQGSHQRKGAVKGSGLGLSIARDCIRRMQGELYLVDESGQDVCFRIELPSSKNTK | 6.52 ± 0.67 | 6.72 ± 0.21 | 6.56 ± 0.21 | 6.41 ± 0.28 | 3.12 ± 0.098 | 10.8 ± 0.2 | 6.16 ± 0.12 | 13.1 ± 1 | 6.8109 ± 0.0031 | 12.6 ± 0.89 | – | – |
| MKSVLKVSLAALTLAFAVSSHAADKKLVVATDTAFVPFEFKQGDKYVGFDVDLWAAIAKELKLDYELKPMDFSGIIPALQTKNVDLALAGITITDERKKAIDFSDGYYKSGLLVMVKANNNDVKSVKDLDGKVVAVKSGTGSVDYAKANIKTKDLRQFPNIDNAYMELGTNRADAVLHDTPNILYFIKTAGNGQFKAVGDSLEAQQYGIAFPKGSDELRDKVNGALKTLRENGTYNEIYKKWFGTEPK [P0AEQ3] | 4.537 ± 0.04 | 6.03 ± 2.1 | 6.84 ± 0.17 | 6.824 ± 0.065 | 3.38 ± 0.19 | 11.8 ± 1.3 | 6.43 ± 0.32 | 13.1 ± 0.91 | 6.13 ± 0.34 | 14.08 ± 0.14 | 6.44 ± 0.68 | 6.48 ± 0.26 |
| MKTAKEYSDTAKREVSVDVDALLAAINEISESEVHRSQNDSEHVSVDGREYHTWRELADAFELDIHDFSVSEVNR | 4.23 ± 0.73 | 1.58 | – | 0.678 | – | 1.38 | – | 1.03 | – | – | 0.551 | – |
| MKTALLLEKLEGQLATLRQRCAPVSQFATLSARFDRHLFQTRATTLQACLDEAGDNLAALRHAVEQQQLPQVAWLAEHLAAQLEAIAREASAWSLREWDSAPPKIARWQRKRIQHQDFERRLREMVAERRARLARVTDLVEQQTLHREVEAYEARLARCRHALEKIENRLARLTR | 4.68 ± 0.36 | 2.5 ± 0.12 | 2.39 ± 0.15 | 4.09 ± 0.54 | 1.955 ± 0.0034 | 6.06 ± 3.5 | 2.58 ± 0.12 | 2.85 ± 0.6 | 2.92 ± 0.094 | 5.17 ± 0.34 | 2.21 ± 0.046 | 3.69 ± 0.51 |
| MKTAYIAKQRQISFVKSHFSRQLEERLGLIEVQAPILSRVGDGTQDNLSGCEKAVQVKVKALPDAQFEVVHSLAKWKRQTLGQHDFSAGEGLYTHMKALRPDEDRLSPLHSVYVDQWDWERVMGDGERQFSTLKSTVEAIWAGIKATEAAVSEEFGLAPFLPDQIHFVHSQELLSRYPDLDAKGRERAIAKDLGAVFLVGIGGKLSDGHRHDVRAPDYDDWSTPSELGHAGLNGDILVWNPVLEDAFELSSMGIRVDADTLKHQLALTGDEDRLELEWHQALLRGEMPQTIGGGIGQSRLTMLLLQLPHIGQVQCGVWPAAVRESVPSLL | 2.59 ± 0.04 | 4.18 ± 2.2 | 3.06 ± 0.71 | – | 2.53 ± 0.085 | 5.26 ± 0.4 | 2.29 ± 0.19 | 4.02 ± 1 | 2.37 ± 0.58 | 5.24 ± 1.9 | 2.771 ± 0.0098 | 2.9 ± 0.16 |
| MKTINTVVAAMALSTLSFGVFAAEPVTASQAQNMNKIGVVSADGASTLDALEAKLAEKAAAAGASGYSITSATNNNKLSGTAVIYK [P0AAX3] | – | – | – | – | – | – | – | – | – | – | 0.346 | – |
| MKTKIPDAVLAAEVSRRGLVKTTAIGGLAMASSALTLPFSRIAHAVDSAIPTKSDEKVIWSACTVNCGSRCPLRMHVVDGEIKYVETDNTGDDNYDGLHQVRACLRGRSMRRRVYNPDRLKYPMKRVGARGEGKFERISWEEAYDIIATNMQRLIKEYGNESIYLNYGTGTLGGTMTRSWPPGNTLVARLMNCCGGYLNHYGDYSSAQIAEGLNYTYGGWADGNSPSDIENSKLVVLFGNNPGETRMSGGGVTYYLEQARQKSNARMIIIDPRYTDTGAGREDEWIPIRPGTDAALVNGLAYVMITENLVDQAFLDKYCVGYDEKTLPASAPKNGHYKAYILGEGPDGVAKTPEWASQITGVPADKIIKLAREIGSTKPAFISQGWGPQRHANGEIATRAISMLAILTGNVGINGGNSGAREGSYSLPFVRMPTLENPIQTSISMFMWTDAIERGPEMTALRDGVRGKDKLDVPIKMIWNYAGNCLINQHSEINRTHEILQDDKKCELIVVIDCHMTSSAKYADILLPDCTASEQMDFALDASCGNMSYVIFNDQVIKPRFECKTIYEMTSELAKRLGVEQQFTEGRTQEEWMRHLYAQSREAIPELPTFEEFRKQGIFKKRDPQGHHVAYKAFREDPQANPLTTPSGKIEIYSQALADIAATWELPEGDVIDPLPIYTPGFESYQDPLNKQYPLQLTGFHYKSRVHSTYGNVDVLKAACRQEMWINPLDAQKRGIHNGDKVRIFNDRGEVHIEAKVTPRMMPGVVALGEGAWYDPDAKRVDKGGCINVLTTQRPSPLAKGNPSHTNLVQVEKV | 5.175 ± 0.011 | – | – | – | – | – | – | 6.94 | – | – | – | 5.91 |
| MKTKLMTLQDATGFFRDGMTIMVGGFMGIGTPSRLVEALLESGVRDLTLIANDTAFVDTGIGPLIVNGRVRKVIASHIGTNPETGRRMISGEMDVVLVPQGTLIEQIRCGGAGLGGFLTPTGVGTVVEEGKQTLTLDGKTWLLERPLRADLALIRAHRCDTLGNLTYQLSARNFNPLIALAADITLVEPDELVETGELQPDHIVTPGAVIDHIIVSQESK | – | – | – | – | – | 8.54 | – | – | – | – | – | – |
| MKTLIRKFSRTAITVVLVILAFIAIFNAWVYYTESPWTRDARFSADVVAIAPDVSGLITQVNVHDNQLVKKGQILFTIDQPRYQKALEEAQADVAYYQVLAQEKRQEAGRRNRLGVQAMSREEIDQANNVLQTVLHQLAKAQATRDLAKLDLERTVIRAPADGWVTNLNVYTGEFITRGSTAVALVKQNSFYVLAYMEETKLEGVRPGYRAEITPLGSNKVLKGTVDSVAAGVTNASSTRDDKGMATIDSNLEWVRLAQRVPVRIRLDNQQENIWPAGTTATVVVTGKQDRDESQDSFFRKMAHRLREFG | – | 5.51 | – | – | – | – | – | – | – | – | – | – |
